B1: THS1 (thebaine synthesis polypeptide isoform, SEQ ID NO. 80) (enzyme)
chain: MDSINSSIYFCAYFRELIIKLLMAPLGVSGLVGKLSTELEVDCDAEKYYNMYKHGEDVQKAVPHLCVDVKVISGDPTRSGCIKEWNVNIDGKTIRSVEETTHNDETKTLRHRVFEGDMMKDFKKFDTIMVVNPKPDGNGCVVTRSIEYEKTNENSPTPFDYLQFGHQAIEDMNKYLRDSE
notes: Purified recombinant protein from E. coli, made from a codon-optimized gene; It carries a His6-tag; 181 amino acids; also called thebaine synthase 1
B2: THS2 (thebaine synthesis polypeptide isoform, SEQ ID NO. 6) (enzyme)
chain: MAPLGVSGLVGKLSTELEVDCDAEKYYNMYKHGEDVKKAVPHLCVDVKIISGDPTSSGCIKEWNVNIDGKTIRSVEETTHDDETKTLRHRVFEGDVMKDFKKFDTIMVVNPKPDGNGCVVTRSIEYEKTNENSPTPFDYLQFGHQAIEDMNKYLRDSESN
notes: Purified recombinant protein from E. coli, made from a codon-optimized gene; 163 amino acids; also called Betv1; Betv1M
B3: THS1s (N-terminally truncated splice variant of THS1, SEQ ID NO. 81) (enzyme)
chain: MYKHGEDVQKAVPHLCVDVKVISGDPTRSGCIKEWNVNIDGKTIRSVEETTHNDETKTLRHRVFEGDMMKDFKKFDTIMVVNPKPDGNGCVVTRSIEYEKTNENSPTPFDYLQFGHQAIEDMNKYLRDSE
notes: Purified recombinant His6-tagged protein from E. coli; 131 amino acids
B4: THS2s (N-terminally truncated splice variant of THS2, SEQ ID NO. 32) (enzyme)
chain: MYKHGEDVKKAVPHLCVDVKIISGDPTSSGCIKEWNVNIDGKTIRSVEETTHDDETKTLRHRVFEGDVMKDFKKFDTIMVVNPKPDGNGCVVTRSIEYEKTNENSPTPFDYLQFGHQAIEDMNKYLRDSESN
notes: Purified recombinant His6-tagged protein from E. coli; 133 amino acids; also called BetV1-1S; Bet v1-1S

Columns and labels:
[1] = target: the molecule itself; test: BS3 chemical cross-linking of purified recombinant protein, SDS-PAGE and immunoblot
Description: (§1) All versions of THS1 and THS2 transcripts were codon-optimized and expressed in E. coli. Purified recombinant THS proteins were added to SalAT-coupled enzyme assays. […] Chemical cross-linking with the purified, recombinant THS proteins was performed to confirm dimerization (FIGS. 15A and 15B). Both THS1 and THS2 can form homodimers, and also display the formation of higher molecular weight oligomers at lower abundance. […] To further investigate the relative abundance of THS isoforms in the plant, protein extracts derived from whole stem, latex-free stem, and latex isolated from the T chemotype were subjected to proteomics analysis (FIG. 11C). In detected peptides with at least one amino acid substitution spectral counts for THS2 were considerably higher than for THS1, consistent with the higher abundance of THS2, compared with THS1, transcripts (FIG. 12C).
(§2) Cross-linking experiments. Bis[sulfosuccinimidyl] suberate (BS3) was used as cross-linking reagent and prepared in PBS buffer at a concentration of 10 mM, of which 2 μL was added to 20 μL of purified recombinant protein (1 μg/μL). After incubation on ice for 1 h, 5 μL of 5×SDS (10% w/v) was added to quench the reaction. Samples were then boiled for 5 min and subjected to SDS-PAGE and immunoblot analysis.

[2] = target: the molecule itself; test: size exclusion chromatography of purified recombinant THS2 (FIG. 15B)
[3] = target: the molecule itself; test: cross-linking, SDS-PAGE and immunoblot (FIG. 15A)
Description: as §1, §2

Protein | binding result [1] | also measured
B1 | binds | 
B2 |  | binding result [2]: binds
B3 | binds | 
B4 |  | binding result [3]: binds
